In US9114148:

Target: cardiac protein phosphatase 1 (type 1 phosphatase activity of mouse hearts) (mouse)
Assay: cell-based or functional assay

- type 1 phosphatase activity: 15 % decrease
Substance: constitutively active, truncated inhibitor-1 (I-T35D; AA 1-65), mouse (from UniProt Q9ERT9 1-65)
